Source: paper PMC3904261 (British Journal of Pharmacology, 2013)
Where “and” joins values, the source holds several entries; their conditions need not be identical. Equal entries are not always repeated. Bridge positions count the residues as written; N and C are the ends. Ends that are not written are not given here.

Assays:
[1] = biological target: T1, AMY1(a) receptor (Homo sapiens, UniProt O60894+P30988); experiment: cAMP production in Cos 7 cells via the AMY1(a) receptor; format: cell-based; settings: AlphaScreen, means ± SEM
T1 construct: HA; expressed in transfected cells; host or cells: Cos 7
T1 sequence (P30988 25-474): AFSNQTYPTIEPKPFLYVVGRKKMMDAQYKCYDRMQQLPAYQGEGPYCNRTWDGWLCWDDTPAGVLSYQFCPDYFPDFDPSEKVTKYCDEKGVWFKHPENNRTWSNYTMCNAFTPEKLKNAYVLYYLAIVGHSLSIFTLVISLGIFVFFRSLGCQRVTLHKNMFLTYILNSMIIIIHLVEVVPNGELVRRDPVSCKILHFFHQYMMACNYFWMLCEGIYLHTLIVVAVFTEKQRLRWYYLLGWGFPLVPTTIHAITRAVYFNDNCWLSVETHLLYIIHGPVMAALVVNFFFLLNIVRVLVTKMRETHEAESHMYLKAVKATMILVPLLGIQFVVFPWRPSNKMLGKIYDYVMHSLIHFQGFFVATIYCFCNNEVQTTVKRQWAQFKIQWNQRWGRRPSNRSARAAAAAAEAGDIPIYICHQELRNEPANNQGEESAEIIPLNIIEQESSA
T1 sequence (O60894 27-148): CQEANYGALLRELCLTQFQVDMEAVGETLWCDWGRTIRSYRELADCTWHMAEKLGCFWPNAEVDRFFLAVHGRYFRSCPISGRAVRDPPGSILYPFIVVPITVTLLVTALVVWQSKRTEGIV
Protocol: SK-N-MC cells were grown in DMEM/F12 medium supplemented with 10% fetal calf serum as described previously (Poyner et al., [1998]). […] Production of cAMP in SK-N-MC cells for all analogues except [[…]]-hαCGRP was by a radioreceptor assay, as described previously (Poyner et al., [1998]). […] For [[…]]-hαCGRP, a different clone of SK-N-MC cells was used and cAMP production was measured via AlphaScreen (Perkin Elmer, Wellesley, MA, USA), as described previously ([…] et al., [2010]). This assay was also used to investigate the action of all derivatives at the AMY1(a) receptor and other experiments using Cos 7 cells. […] GraphPad Prism 5.00 or 6.00 (GraphPad Software Inc., San Diego, CA, USA) was used for data fitting. Concentration-response curves were fitted to a sigmoidal function with Hill slope constrained to unity to obtain pEC50 and maximum responses (Emax) values. Displacement curves were analysed to obtain pIC50 values. Schild plots were fitted by linear regression to obtain slope and intercepts. pEC50 and pIC50 values were compared with that of human αCGRP using Dunnett's test with either a normal or repeated measures one-way ANOVA, as appropriate.

[2] = biological target: T2, CGRP receptor (Homo sapiens, UniProt O60894+Q16602); experiment: β-arrestin 2 translocation in CHO-K1 cells (PathHunter eXpress); format: cell-based; set-up: host or cells: CHO-K1 (PathHunter eXpress β-arrestin kit); settings: for β-Arrestin (CHO-K1) Emax (% CGRP) CGRP analogue: 2 h stimulation, means ± SEM, n = 3; for reduction of Emax, β-arrestin 2 translocation: CHO-K1 cells, compared with CGRP
T2 sequence (Q16602 23-461): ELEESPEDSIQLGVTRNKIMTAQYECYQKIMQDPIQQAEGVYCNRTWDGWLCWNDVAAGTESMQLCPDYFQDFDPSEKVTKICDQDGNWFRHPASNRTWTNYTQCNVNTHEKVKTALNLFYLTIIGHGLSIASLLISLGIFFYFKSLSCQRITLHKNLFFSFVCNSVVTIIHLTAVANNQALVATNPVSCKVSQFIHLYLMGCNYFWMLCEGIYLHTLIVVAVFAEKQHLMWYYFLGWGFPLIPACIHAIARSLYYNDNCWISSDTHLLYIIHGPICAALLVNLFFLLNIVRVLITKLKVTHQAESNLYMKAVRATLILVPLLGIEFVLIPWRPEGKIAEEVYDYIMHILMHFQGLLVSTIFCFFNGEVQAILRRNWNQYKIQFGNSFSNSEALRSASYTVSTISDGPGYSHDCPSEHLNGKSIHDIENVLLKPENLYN
T2 sequence (O60894 27-148): as the sequence (O60894 27-148) above
Protocol: GraphPad Prism 5.00 or 6.00 (GraphPad Software Inc., San Diego, CA, USA) was used for data fitting. Concentration–response curves were fitted to a sigmoidal function with Hill slope constrained to unity to obtain pEC50 and maximum responses (Emax) values. Displacement curves were analysed to obtain pIC50 values. Schild plots were fitted by linear regression to obtain slope and intercepts. pEC50 and pIC50 values were compared with that of human αCGRP using Dunnett's test with either a normal or repeated measures one-way ANOVA, as appropriate.

[3] = biological target: T2, CGRP receptor; experiment: cAMP production in SK-N-MC cells; format: cell-based; set-up: relative expression levels of the receptors (endogenous vs. overexpressed); endogenous in cells; host or cells: SK-N-MC cells (ECACC clone; ATCC clone for [Cys5]-CGRP); settings: for cAMP (SK-N-MC) Emax (% CGRP) CGRP analogue: radioreceptor assay, approx. 10 min, means ± SEM, n = 3–6
Protocol: Production of cAMP in SK-N-MC cells for all analogues except [[…]]-hαCGRP was by a radioreceptor assay, as described previously (Poyner et al., [1998]). […] For [[…]]-hαCGRP, a different clone of SK-N-MC cells was used and cAMP production was measured via AlphaScreen (Perkin Elmer, Wellesley, MA, USA), as described previously ([…] et al., [2010]). This assay was also used to investigate the action of all derivatives at the AMY1(a) receptor and other experiments using Cos 7 cells. […] GraphPad Prism 5.00 or 6.00 (GraphPad Software Inc., San Diego, CA, USA) was used for data fitting. Concentration-response curves were fitted to a sigmoidal function with Hill slope constrained to unity to obtain pEC50 and maximum responses (Emax) values. Displacement curves were analysed to obtain pIC50 values. Schild plots were fitted by linear regression to obtain slope and intercepts. pEC50 and pIC50 values were compared with that of human αCGRP using Dunnett's test with either a normal or repeated measures one-way ANOVA, as appropriate.

[4] = biological target: AMY_(1(a)) receptor (human HA-tagged CT (a) receptor with human myc-tagged RAMP1) (human) (UniProt O60894)
AMY_(1(a)) receptor (human HA-tagged CT (a) receptor with human myc-tagged RAMP1) (human), sequence (O60894 whole entry, looked up): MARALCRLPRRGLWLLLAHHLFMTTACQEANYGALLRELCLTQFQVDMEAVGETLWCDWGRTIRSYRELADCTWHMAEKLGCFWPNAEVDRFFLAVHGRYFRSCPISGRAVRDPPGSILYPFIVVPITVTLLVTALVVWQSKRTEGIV

[5] = biological target: T3, CGRP receptor (calcitonin receptor-like receptor in complex with receptor activity-modifying protein 1) (human (endogenous in SK-N-MC), UniProt Q16602 23-461; O60894 27-148); experiment: radioligand binding; displacement of ^125I-CGRP from SK-N-MC cell membranes by unlabelled peptides, microcentrifugation-based binding assay; [Cys^5]-CGRP and its control on another batch of SK-N-MC cells; settings: one partner purified
T3 sequence (Q16602 23-461, chain 1 of 2): as the sequence (Q16602 23-461) above
T3 sequence (O60894 27-148, chain 2 of 2): as the sequence (O60894 27-148) above

[6] = biological target: T3, CGRP receptor (calcitonin receptor-like …); experiment: cell-based or functional assay

For `CC(C)C[C@H](NC(=O)CNC(=O)[C@H](C)NC(=O)[C@H](CC(C)C)NC(=O)[C@H](CCCNC(=N)N)NC(=O)[C@H](Cc1c[nH]cn1)NC(=O)[C@@H](NC(=O)[C@@H](NC(=O)[C@@H]1CSSC[C@H](NC(=O)[C@H](C)N)C(=O)N[C@@H](CC(=O)O)C(=O)N[C@@H](C)C(=O)N[C@@H](C)C(=O)N[C@@H]([C@@H](C)O)C(=O)N1)C(C)C)[C@@H](C)O)C(=O)N[C@@H](CC(C)C)C(=O)N[C@@H](CO)C(=O)N[C@@H](CCCNC(=N)N)C(=O)N[C@@H](CO)C(=O)NCC(=O)NCC(=O)N[C@H](C(=O)N[C@H](C(=O)N[C@@H](CCCCN)C(=O)N[C@@H](CC(N)=O)C(=O)N[C@@H](CC(N)=O)C(=O)N[C@@H](Cc1ccccc1)C(=O)N[C@H](C(=O)N1CCC[C@H]1C(=O)N[C@H](C(=O)N[C@@H](CC(N)=O)C(=O)N[C@H](C(=O)NCC(=O)N[C@@H](CO)C(=O)N[C@@H](CCCCN)C(=O)N[C@@H](C)C(=O)N[C@@H](Cc1ccccc1)C(N)=O)C(C)C)[C@@H](C)O)C(C)C)C(C)C)C(C)C` [[Ala^4]], the “AMY1(a) receptor-stimulated cAMP Emax (% CGRP) CGRP analogue” value ([1]; n = 3–6) was 161 ± 45 % CGRP, the “AMY1(a) receptor-stimulated cAMP Emax (% CGRP) CGRP analogue” value ([1]; n = 3–6, listed as [Ala^6]) was 42 ± 11 % CGRP and the “AMY1(a) receptor-stimulated cAMP Emax (% CGRP) CGRP analogue” value ([1]; n = 3–6, listed as [Ala^8]) was 143 ± 11 % CGRP. The “AMY1(a) receptor-stimulated cAMP Emax (% CGRP) CGRP analogue” value ([1]; n = 3–6, listed as [Ala^9]) was 89 ± 9 % CGRP, the “β-Arrestin (CHO-K1) Emax (% CGRP) CGRP analogue” value [2] was 73 ± 3 % CGRP and the “β-Arrestin (CHO-K1) Emax (% CGRP) CGRP analogue” value ([2]; listed as [Ala^6]) was 43 ± 2.0 % CGRP. The “β-Arrestin (CHO-K1) Emax (% CGRP) CGRP analogue” value ([2]; listed as [Ala^8]) was 81 ± 3 % CGRP, the “β-Arrestin (CHO-K1) Emax (% CGRP) CGRP analogue” value ([2]; listed as [Ala^9]) was 64 ± 3 % CGRP and the “reduction of Emax, β-arrestin 2 translocation” value ([2]; listed as [Ala^6]-CGRP) was ~60%. The “reduction of Emax, β-arrestin 2 translocation” value ([2]; listed as [Ala^8]-CGRP) was 20%, the EC50 ([3]; AlphaScreen, second SK-N-MC clone, n = 3–4, read-out: pEC50, cAMP, control experiments for cross-compatibility of the two SK-N-MC cell clones (converted)) was 26.3 nM and 40.7 nM and the “cAMP (SK-N-MC) Emax (% CGRP) CGRP analogue” value [3] was 100 ± 11 % CGRP. For the same molecule, the “cAMP (SK-N-MC) Emax (% CGRP) CGRP analogue” value ([3]; listed as [Ala^6]) was 72 ± 12 % CGRP, the “cAMP (SK-N-MC) Emax (% CGRP) CGRP analogue” value ([3]; listed as [Ala^8]) was 104 ± 8 % CGRP and the “cAMP (SK-N-MC) Emax (% CGRP) CGRP analogue” value ([3]; listed as [Ala^9]) was 103 ± 13 % CGRP.

B1: [Ala^8]-CGRP (peptide)
chain: ACDTATCATHRLAGLLSRSGGVVKNNFVPTNVGSKAF-NH2
modifications: disulfide 2-7; N-terminus assumed
SMILES: CC(C)C[C@H](NC(=O)CNC(=O)[C@H](C)NC(=O)[C@H](CC(C)C)NC(=O)[C@H](CCCNC(=N)N)NC(=O)[C@H](Cc1c[nH]cn1)NC(=O)[C@@H](NC(=O)[C@H](C)NC(=O)[C@@H]1CSSC[C@H](NC(=O)[C@H](C)N)C(=O)N[C@@H](CC(=O)O)C(=O)N[C@@H]([C@@H](C)O)C(=O)N[C@@H](C)C(=O)N[C@@H]([C@@H](C)O)C(=O)N1)[C@@H](C)O)C(=O)N[C@@H](CC(C)C)C(=O)N[C@@H](CO)C(=O)N[C@@H](CCCNC(=N)N)C(=O)N[C@@H](CO)C(=O)NCC(=O)NCC(=O)N[C@H](C(=O)N[C@H](C(=O)N[C@@H](CCCCN)C(=O)N[C@@H](CC(N)=O)C(=O)N[C@@H](CC(N)=O)C(=O)N[C@@H](Cc1ccccc1)C(=O)N[C@H](C(=O)N1CCC[C@H]1C(=O)N[C@H](C(=O)N[C@@H](CC(N)=O)C(=O)N[C@H](C(=O)NCC(=O)N[C@@H](CO)C(=O)N[C@@H](CCCCN)C(=O)N[C@@H](C)C(=O)N[C@@H](Cc1ccccc1)C(N)=O)C(C)C)[C@@H](C)O)C(C)C)C(C)C)C(C)C
With B1 the Emax (% CGRP), cAMP production in Cos 7 cells with the AMY (1(a)) receptor [4] was 143 % CGRP, the pEC50, cAMP production in Cos 7 cells with the AMY (1(a)) receptor [4] was 8.97 and the pKi [5] was 9.42.

B2: [Ala^9]-CGRP (peptide)
chain: ACDTATCVAHRLAGLLSRSGGVVKNNFVPTNVGSKAF-NH2
modifications: disulfide 2-7; N-terminus assumed
SMILES: CC(C)C[C@H](NC(=O)CNC(=O)[C@H](C)NC(=O)[C@H](CC(C)C)NC(=O)[C@H](CCCNC(=N)N)NC(=O)[C@H](Cc1c[nH]cn1)NC(=O)[C@H](C)NC(=O)[C@@H](NC(=O)[C@@H]1CSSC[C@H](NC(=O)[C@H](C)N)C(=O)N[C@@H](CC(=O)O)C(=O)N[C@@H]([C@@H](C)O)C(=O)N[C@@H](C)C(=O)N[C@@H]([C@@H](C)O)C(=O)N1)C(C)C)C(=O)N[C@@H](CC(C)C)C(=O)N[C@@H](CO)C(=O)N[C@@H](CCCNC(=N)N)C(=O)N[C@@H](CO)C(=O)NCC(=O)NCC(=O)N[C@H](C(=O)N[C@H](C(=O)N[C@@H](CCCCN)C(=O)N[C@@H](CC(N)=O)C(=O)N[C@@H](CC(N)=O)C(=O)N[C@@H](Cc1ccccc1)C(=O)N[C@H](C(=O)N1CCC[C@H]1C(=O)N[C@H](C(=O)N[C@@H](CC(N)=O)C(=O)N[C@H](C(=O)NCC(=O)N[C@@H](CO)C(=O)N[C@@H](CCCCN)C(=O)N[C@@H](C)C(=O)N[C@@H](Cc1ccccc1)C(N)=O)C(C)C)[C@@H](C)O)C(C)C)C(C)C)C(C)C
B2 was tested, and the Emax (% CGRP), cAMP production in Cos 7 cells with the AMY (1(a)) receptor [4] was 89 % CGRP, the pEC50, cAMP production in Cos 7 cells with the AMY (1(a)) receptor [4] was 8.21 and the “Emax (% CGRP), cAMP production in SK-N-MC cells” value [6] was 103 % CGRP. The “Emax (% CGRP), β-arrestin 2 translocation in CHO-K1 cells expressing the human CGRP receptor” value [6] was 64 % CGRP, the “pEC50, cAMP production in SK-N-MC cells” value [6] was 7.3 and the “pEC50, β-arrestin 2 translocation in CHO-K1 cells expressing the human CGRP receptor” value [6] was 8.23.

B3: [Cys^1]-CGRP (peptide)
chain: CCDTATCVTHRLAGLLSRSGGVVKNNFVPTNVGSKAF-NH2
modifications: disulfide 2-7; also: Cys1 Acm protected, removal not given here
With B3 the “Emax (% CGRP), cAMP production in SK-N-MC cells” value [6] was 71 % CGRP, the “Emax (% CGRP), β-arrestin 2 translocation in CHO-K1 cells expressing the human CGRP receptor” value [6] was 60 % CGRP and the “pEC50, cAMP production in SK-N-MC cells” value [6] was 7.7. The “pEC50, β-arrestin 2 translocation in CHO-K1 cells expressing the human CGRP receptor” value [6] was 8.58 and the pKi [5] was 9.55.

B4: [Cys^6]-CGRP (peptide)
chain: ACDTACCVTHRLAGLLSRSGGVVKNNFVPTNVGSKAF-NH2
modifications: disulfide 2-7; also: Cys6 Acm protected, removal not given here
B4 gave a pKi [5] of 9.33.

B5: [Asp^6]-CGRP (peptide)
chain: ACDTADCVTHRLAGLLSRSGGVVKNNFVPTNVGSKAF-NH2
modifications: disulfide 2-7
Molecule B5 has a pKi [5] of 7.5.

B6: [Lys^6]-CGRP (peptide)
chain: ACDTAKCVTHRLAGLLSRSGGVVKNNFVPTNVGSKAF-NH2
modifications: disulfide 2-7
In the case of B6, the pKi [5] is reported as 7.76.
